Assay results: US20180066058A1 (published 2018)
Blank lines part the entries; values can stand above or below the binder they belong to.

Assays:
[1] = biological target: T1, Cynomolgus ICOS on activated cynomolgus T cells (cynomolgus, UniProt Q9Y6W8 21-195 (human entry)); experiment: flow cytometry, AF647 pre-labelled hIgG1 on activated cynomolgus pan T cells, donor 1
T1 construct: also called NHP ICOS
T1 chain: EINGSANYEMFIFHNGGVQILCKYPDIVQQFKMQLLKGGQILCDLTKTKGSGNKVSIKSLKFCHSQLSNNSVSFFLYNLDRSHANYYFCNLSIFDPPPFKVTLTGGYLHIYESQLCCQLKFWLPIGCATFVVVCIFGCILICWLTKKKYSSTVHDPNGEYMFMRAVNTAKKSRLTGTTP
Method: PBMC from whole blood of 2 Mauritian cynomolgus macaques (Wickham Laboratories) were isolated by gradient centrifugation and cultured for 3 days with CD2/CD3/CD28 MACSiBeads (Miltenyi) to induce ICOS expression on their surface. […] Cells were also labelled with V450-CD3 to assess staining on T-cell subsets. Stained cells were run on Attune (Thermofisher) and staining intensity was presented as mean fluorescence intensity (MFI). EC50 was determined using GraphPad Prism.

Human ICOS on cells [2] = biological target: T2, Human ICOS on cells (human, UniProt Q9Y6W8 21-199); experiment: cell-based or functional assay
T2 sequence: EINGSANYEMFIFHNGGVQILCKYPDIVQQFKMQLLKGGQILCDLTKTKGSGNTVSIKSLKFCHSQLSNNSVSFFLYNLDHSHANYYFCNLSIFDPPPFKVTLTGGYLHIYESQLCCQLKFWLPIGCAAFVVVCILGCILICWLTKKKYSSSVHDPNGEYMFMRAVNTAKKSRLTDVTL

[3] = biological target: T3, mouse ICOS-mFc (Chimerigen) (mouse, UniProt Q9WVS0 21-141, limits assumed); experiment: HTRF neutralisation of Alexa 647 mouse B7-H2 binding to mouse ICOS-mFc; human IgG1; mean, n = 3
T3 construct: also called mouse ICOS receptor; mouse ICOS Receptor; not shown: mouse Fc of the bought construct
T3 sequence: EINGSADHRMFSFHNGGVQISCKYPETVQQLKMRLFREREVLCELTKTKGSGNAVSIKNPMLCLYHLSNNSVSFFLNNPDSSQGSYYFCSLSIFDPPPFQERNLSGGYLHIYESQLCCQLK
Method: (§1) 5 μl of ICOS receptor (human ICOS-mFc, 20 nM, 5 nM final or mouse ICOS-mFc 4 nM, 1 nM final (Chimerigen)) was added to required wells. Plate was incubated for 1 hr at room temperature (RT).
(§2) Finally, 5 μl of anti-mouse IgG donor mAb (Southern Biotech) labelled with europium cryptate (Cis Bio), 40 nM, 10 nM final was added to each well and the assay was left in the dark at RT to incubate for a further 2 hours. After incubation, assay was read on Envision plate reader (Perkin Elmer) using a standard HTRF protocol. […] Titration curves and IC50 values [M] were plotted using Graphpad (Prism). IC50 values were calculated by first transforming the data using equation X=Log(X). The transformed data was then fitted using nonlinear regression, using fitting algorithm, log (inhibitor) vs. response—variable slope (four parameters).

Human ICOS on cells [4] = biological target: T2, Human ICOS on cells; experiment: flow cytometry on activated human pan T cells (row Human), first donor column
[5] = biological target: T4, human ICOS-mFc (Chimerigen) (human, UniProt Q9Y6W8 21-140); experiment: HTRF neutralisation of Alexa 647 human B7-H2 binding to human ICOS-mFc; human IgG1; mean, n = 4
T4 construct: also called human ICOS receptor; human ICOS Receptor; not shown: mouse Fc of the bought construct
T4 sequence: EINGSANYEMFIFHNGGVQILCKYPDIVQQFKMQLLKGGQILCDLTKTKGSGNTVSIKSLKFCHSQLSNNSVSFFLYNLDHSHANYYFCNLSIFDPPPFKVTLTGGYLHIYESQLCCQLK
Method: as §1, §2

Human ICOS on cells [6] = biological target: T2, Human ICOS on cells; experiment: cell-based or functional assay; remark: listed apart in the source
Human ICOS on cells [7] = biological target: T2, Human ICOS on cells; experiment: cell-based or functional assay; remark: listed apart in the source
Human ICOS on cells [8] = biological target: T2, Human ICOS on cells; experiment: flow cytometry on activated human pan T cells (row Human), second donor column
Human ICOS on cells [9] = biological target: T2, Human ICOS on cells; experiment: flow cytometry on activated primary human pan T cells; naked hIgG1 detected with AF647 goat anti-human Fc
Method: Pan T-cells (CD3 cells) were isolated and cultured for 3 days with CD3/CD28 dynabeads (Thermofisher) to induce ICOS expression on their surface. […] Stained cells were ran on the Attune and staining intensity was presented as Mean of fluorescence intensity (MFI). EC50 was determined using GraphPad Prism.

[10] = biological target: T5, Human ICOS extracellular domain fused to human Fc (human, UniProt Q9Y6W8 21-140); experiment: SPR (ProteOn XPR36), human ICOS ECD-Fc captured, Fab analyte, pH 7.4, 37 C
T5 construct: Dimeric protein made in house from NCBI NP_036224.1; also called hICOS; hICOS Fc; not shown: human Fc region
T5 sequence: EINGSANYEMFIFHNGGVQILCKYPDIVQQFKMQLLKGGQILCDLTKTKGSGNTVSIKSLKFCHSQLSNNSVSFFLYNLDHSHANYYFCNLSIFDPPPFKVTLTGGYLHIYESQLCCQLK
Method: (§3) In addition, a comparison was performed of antibody:antigen binding affinity at different pH values. As before, the dimeric human ICOS protein, presented as the extracellular domain of ICOS fused to a human Fc region, was captured on the anti-human Fc capture surface created using the 3 antibody cocktail, immobilised on the GLC biosensor chip by primary amine coupling. SPR analysis of recombinantly expressed anti-ICOS Fabs was carried out on the ProteOn XPR36 Array system (Biorad). The Fab fragments were used as analyte to generate binding sensorgrams, which were double referenced with a buffer injection (i.e., 0 nM). The subsequent referenced sensorgrams were fitted to the 1:1 model inherent to the ProteOn analysis software. […] Data were fitted to the 1:1 model.

[11] = biological target: T5, Human ICOS extracellular domain fused …; experiment: SPR (ProteOn XPR36), human ICOS ECD-Fc captured, Fab analyte, pH 7.6, 25 C
[12] = biological target: T5, Human ICOS extracellular domain fused …; experiment: SPR (ProteOn XPR36), human ICOS ECD-Fc captured, Fab analyte, pH 5.5, 37 C
Method: as §3

[13] = biological target: T5, Human ICOS extracellular domain fused …; experiment: SPR (ProteOn XPR36), Fc-tagged ICOS captured on anti-human IgG, Fab analyte, 25 C
Method: (§4) Fab affinities of the ICOS leads were generated by SPR using the ProteOn XPR3 6 (BioRad). An anti-human IgG capture surface was created on a GLC biosensor chip by primary amine coupling, immobilising three anti-human IgG antibodies (Jackson Labs 109-005-008, 109-006-008 and 309-006-008). […] Binding sensorgrams were double referenced using a buffer injection (i.e. 0 nM), and the data was fitted to the 1:1 model inherent to the ProteOn XPR36 analysis software. The assay was run at 25° C. and using HBS-EP as running buffer.

[14] = biological target: T6, Mouse ICOS extracellular domain fused to human Fc (mouse, UniProt Q9WVS0 21-141); experiment: as above
T6 construct: Made in house from NCBI NP_059508.2; also called mICOS; mICOS Fc; not shown: human Fc region
T6 sequence: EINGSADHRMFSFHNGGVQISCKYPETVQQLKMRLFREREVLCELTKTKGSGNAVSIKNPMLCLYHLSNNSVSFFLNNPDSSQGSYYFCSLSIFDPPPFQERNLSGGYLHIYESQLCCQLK
Method: as §4

[15] = biological target: T5, Human ICOS extracellular domain fused …; experiment: SPR (ProteOn XPR36), human ICOS ECD-Fc captured, Fab analyte, pH 5.5, 37 C (second run)
Method: as §3

[16] = biological target: T5, Human ICOS extracellular domain fused …; experiment: SPR (ProteOn XPR36), human ICOS ECD-Fc captured, Fab analyte, pH 7.6, 37 C
Method: as §3

EC50 [1]: 222 nM
EC50 (Molar unit), NK primary cell ADCC assay on MJ cells, 2 hour time point, Donor 1 (Human ICOS on cells [2]): 0.121 nM
EC50 (Molar unit), NK primary cell ADCC assay on MJ cells, 2 hour time point, Donor 2 (Human ICOS on cells [2]): 0.529 nM
EC50 (Molar unit), NK primary cell ADCC assay on MJ cells, 2 hour time point, Donor 3 (Human ICOS on cells [2]): 2.92 nM
IC50 [3]: 6.5 nM
EC50 (Human ICOS on cells [4]): 221 nM
IC50 [5]: 2.2 nM
EC50 (Molar unit), NK primary cell ADCC assay on ICOS-transfected CCRF-CEM cells, 4 hour time point, Donor 4 (Human ICOS on cells [6]): 0.00392 nM
EC50 (Molar unit), NK primary cell ADCC assay on ICOS-transfected CCRF-CEM cells, 4 hour time point, Donor 5 (Human ICOS on cells [6]): 0.00395 nM
EC50 (Molar unit), NK primary cell ADCC assay on ICOS-transfected CCRF-CEM cells, 4 hour time point, Donor 6 (Human ICOS on cells [6]): 0.00375 nM
EC50 (Molar unit), NK primary cells ADCC assay on MJ cells, 2 hour time point, Donor 1 (Human ICOS on cells [7]): 0.121 nM
EC50 (Molar unit), NK primary cells ADCC assay on MJ cells, 2 hour time point, Donor 2 (Human ICOS on cells [7]): 0.529 nM
EC50 (Human ICOS on cells [8]): 121 nM
EC50 (Human ICOS on cells [9]): 17 nM
B1: STIM001 human IgG1 (antibody, V domains shown)
VH: QVQVVQSGAEVKKPGASVKVSCKASGYTFSTFGITWVRQAPGQGLEWMGWISAYNGDTNYAQNLQGRVIMTTDTSTSTAYMELRSLRSDDTAVYYCARSSGHYYYYGMDVWGQGTTVTVSS
VL: DIVMTQSPLSLPVTPGEPASISCRSSQSLLHSNEYNYLDWYLQKPGQSPQLLIFLGSNRASGVPDRFSGSGSGTDFTLKITRVEAEDVGIYYCMQSLQTPLTFGGGTKVEIKR
notes: Human IgG1 format; Conjugated with AF647 in the direct staining assays, coupled to beads or plates in the MJ cell assays; also called STIM001 (hIgG1); STIM001 hIgG1

Kd [10]: 63.5 nM
Kd [11]: 44 nM
Kd [12]: 73.1 nM
Kd [13]: 44 nM
Kd [14]: 407 nM
Kd [15]: 80.3 nM
Kd [16]: 42.6 nM
B2: STIM001 Fab (Fab, V domains shown)
VH: QVQVVQSGAEVKKPGASVKVSCKASGYTFSTFGITWVRQAPGQGLEWMGWISAYNGDTNYAQNLQGRVIMTTDTSTSTAYMELRSLRSDDTAVYYCARSSGHYYYYGMDVWGQGTTVTVSS
VL: DIVMTQSPLSLPVTPGEPASISCRSSQSLLHSNEYNYLDWYLQKPGQSPQLLIFLGSNRASGVPDRFSGSGSGTDFTLKITRVEAEDVGIYYCMQSLQTPLTFGGGTKVEIK
notes: Recombinantly expressed purified Fab
